Laboratory results published in paper PMC3901395, “Multivalent interactions of the SUMO-interaction motifs in RING finger protein 4 determine the specificity for chains of the SUMO” (Biochemical Journal, 2013).

Key:
PML-NBs in HeLa cells = assay: Disruption of PML-NBs by overexpression of RNF4 in HeLa cells; assay type: cell-based; details: HeLa cells transfected with HA-tagged full-length RNF4; automatic image analysis, 30 to 60 cells per condition; GFP control plasmid 12 PML-NBs, untreated average 15
Procedure: HeLa B-cells were grown on coverslips and fixed in PBS with 3% paraformaldehyde. After permeabilization in PBS with 0.2% saponin (Sigma–Aldrich), cells were blocked in PBS, 3% BSA and 0.2% saponin. Primary and Alexa Fluor®-labelled secondary antibodies (Invitrogen) were applied in blocking buffer. Coverslips were embedded in ProLong® Gold Antifade (Invitrogen) and examined using a Zeiss Axioplan2 fluorescence microscope. Proteins and epitope tags were detected with the following antibodies against PML (A167 and A168; Bethyl), HA (haemagglutinin) (3F10; Roche, 16B12; Covance) and CDC11 (SC-7170; Santa Cruz Biotechnology). The secondary antibodies were labelled with Alexa Fluor® 546, Alexa Fluor® 647 or Alexa Fluor® 670 (Invitrogen), or IRDye800 (Rockland). For quantification of PML-NBs, cells were acquired using a Zeiss Meta 510 Confocal microscope, 63× objective NA (numerical aperture) 1.4 and appropriate laser and filter settings. Z-stacks were taken according to Nyquist criteria. Microscopic pictures were analysed with Volocity 6.2 Cellular Imaging & Analysis Software (PerkinElmer). Transfected cells were automatically identified within the 546 nm channel and the amount of PML-NBs (647 nm channel) that were localized within the nuclei of transfected cells were automatically counted.

[1] = test system: mono-SUMOs and SUMO chains; assay: ITC binding to mono-SUMOs and SUMO chains (general statements); details: full-length dimerized RNF4 vs SIM domain
Source text: For expression in Escherichia coli, linear poly-SUMO chains were generated as described previously with slight modifications. After the combined PCR/ligation reaction, the 4×SUMO2-ΔN11 or 4×SUMO1-ΔN15 DNA polymers were separated from smaller polymers by agarose gel electrophoresis and individually extracted (Macherey–Nagel). These were then subjected to a second PCR with primers to create BamHI and XhoI restriction sites, a C-terminal GG motif and a stop codon. The resulting fragments coding for di-, tri- and tetra-SUMO2-ΔN11 or SUMO1-ΔN15 chains were amplified and cloned into pGEX-4T2. […] Each monomer in these chains is separated by RS replacing the natural GG motif. A similar strategy was used to design C-terminally GFP–HA2-tagged linear poly-SUMOs in the copper-inducible Ycplac22 vector for expression in S. cerevisiae. […]
The mono-SUMOs and linear poly-SUMO1 and poly-SUMO2 proteins as well as all RNF4 constructs were expressed as GST-fusion proteins from E. coli Rosetta™ 2(DE3)pLysS cells (Novagen) cultivated in LB medium with 100 μg/ml ampicillin and 30 μg/ml chloramphenicol after induction with 0.1 mM IPTG at 20°C for 12 h. […]
Binding of peptides and proteins to SUMOs was investigated by ITC using either a VP-ITC or an ITC200 (GE Healthcare). […] Protein concentrations were determined by measuring the absorption at 280 nm. […]

B1: RNF4 FL: full-length human RNF4 (RING finger protein 4); FLAG-tagged in yeast, HA-tagged in HeLa cells (protein)
chain: MSTRKRRGGAINSRQAQKRTREATSTPEISLEAEPIELVETAGDEIVDLTCESLEPVVVDLTHNDSVVIVDERRRPRRNARRLPQDHADSCVVSSDDEELSRDRDVYVTTHTPRNARDEGATGLRPSGTVSCPICMDGYSEIVQNGRLIVSTECGHVFCSQCLRDSLKNANTCPTCRKKINHKRYHPIYI
modifications: left off: GST, end not stated, cleaved
notes: full-length human RNF4 (RING finger protein 4); FLAG-tagged in yeast, HA-tagged in HeLa cells
number of PML-NBs after transfection (PML-NBs in HeLa cells): approximately five | binding to SUMO chains compared with the monomeric SIM domain [1]: stronger as compared with the monomeric SIM domain, especially for short SUMO chains
